The text below walks through data of publication PMC4072508, “Genome-Wide Prediction and Validation of Peptides That Bind Human Prosurvival Bcl-2 Proteins” (PLoS Computational Biology, 2014).

Common to all, as to assay: peptide SPOT array, c-Myc-tagged receptor at 1 uM or 100 nM, anti-c-Myc-Cy3
For one assay, the target named is Bcl-xL, Q07817.
The target of another assay is T1, Bfl-1, Q16548.
T1 chain: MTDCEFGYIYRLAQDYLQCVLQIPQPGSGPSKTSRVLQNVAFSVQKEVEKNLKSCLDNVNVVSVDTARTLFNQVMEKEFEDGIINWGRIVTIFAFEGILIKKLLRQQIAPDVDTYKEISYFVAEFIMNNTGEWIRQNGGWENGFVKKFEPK

A further assay deals with T2, Mcl-1, Q07820.
T2 chain: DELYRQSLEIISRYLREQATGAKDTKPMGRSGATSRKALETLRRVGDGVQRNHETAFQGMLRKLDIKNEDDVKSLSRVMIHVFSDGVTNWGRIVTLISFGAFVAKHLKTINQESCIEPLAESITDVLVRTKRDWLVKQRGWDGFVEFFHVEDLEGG

Chain of Bcl-xL, Q07817 (Q07817 1-209): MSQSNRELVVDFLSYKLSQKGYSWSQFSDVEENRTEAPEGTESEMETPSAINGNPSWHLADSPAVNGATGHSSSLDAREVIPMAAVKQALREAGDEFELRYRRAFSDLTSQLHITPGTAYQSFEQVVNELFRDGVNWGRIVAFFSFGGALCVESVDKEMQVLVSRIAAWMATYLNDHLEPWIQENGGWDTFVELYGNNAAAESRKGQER

B1: RBL1 (peptide)
chain: WTLFVYTKGNFRMILDDLVNSYHLLL
B1: the SPOT signal as a fraction of Bim BH3's signal on the same receptor and array in the assay with Bcl-xL, Q07817 worked out at 0.09; in the assay with Bfl-1, Q16548, 0.13; with Mcl-1, Q07820, 0.11.

B2: BBS10 (peptide)
chain: RMIVDCVSSHLKKTGDGAKTFIIFLC
As to B2, the SPOT signal as a fraction of Bim BH3's signal on the same receptor and array in the assay with Bcl-xL, Q07817 was 1; with Bfl-1, Q16548 it was 0.36; with Mcl-1, Q07820, 0.17.

B3: GBP6 (peptide)
chain: NDDTPWIARTLDNLADELTAILSAPA
For B3, the SPOT signal as a fraction of Bim BH3's signal on the same receptor and array with Bcl-xL, Q07817 worked out at 0.04; with Bfl-1, Q16548 it was 0.04; in the assay with Mcl-1, Q07820, 0.04.

B4: ISOC1 (peptide)
chain: AGYELLIQKFLSLYGDQIDMHRKFVV
B4: the SPOT signal as a fraction of Bim BH3's signal on the same receptor and array in the assay with Bcl-xL, Q07817 was 0.13; with Bfl-1, Q16548 it was 0.06; in the assay with Mcl-1, Q07820, 0.13.

B5: PRCP (peptide)
chain: DDMFEPHSWNLKELLDDCFQQWGVRP
Regarding B5, the SPOT signal as a fraction of Bim BH3's signal on the same receptor and array with Bcl-xL, Q07817 turned out to be 0.07; with Bfl-1, Q16548, 0.05; with Mcl-1, Q07820 it was 0.04.

B6: DHX30 (peptide)
chain: PVESSWIAPELRLQLDDILPLGKDSG
As for B6, the SPOT signal as a fraction of Bim BH3's signal on the same receptor and array is 0.05 in the assay with Bcl-xL, Q07817; 0.04 with Bfl-1, Q16548; 0.04 with Mcl-1, Q07820.

B7: DHX30 (peptide)
chain: PVESSWIAPEDRLQSDDILPLGKDSG
As for B7, the SPOT signal as a fraction of Bim BH3's signal on the same receptor and array in the assay with Bcl-xL, Q07817 stood at 0.05; in the assay with Bfl-1, Q16548, 0.04; with Mcl-1, Q07820, 0.04.

B8: FUT8 (peptide)
chain: KKLKNLEGNELQRHADEFLLDLGHHE
Turning to B8, the SPOT signal as a fraction of Bim BH3's signal on the same receptor and array worked out at 0.12 with Bcl-xL, Q07817; 0.05 in the assay with Bfl-1, Q16548; 0.05 with Mcl-1, Q07820.

B9: PRCP (peptide)
chain: DDMFEPHSWNDKELSDDCFQQWGVRP
As to B9, the SPOT signal as a fraction of Bim BH3's signal on the same receptor and array was 0.07 with Bcl-xL, Q07817; 0.05 with Bfl-1, Q16548; 0.04 with Mcl-1, Q07820.

B10: PRKD3 (peptide)
chain: IQENVDISTVDQIFADEVLGSGQFGI
As for B10, the SPOT signal as a fraction of Bim BH3's signal on the same receptor and array worked out at 0.07 in the assay with Bcl-xL, Q07817; 0.04 with Bfl-1, Q16548; 0.03 with Mcl-1, Q07820.

B11: FBXO30 (peptide)
chain: LCQLSCVSKLDRDVCGSLLQSRGMVI
B11: the SPOT signal as a fraction of Bim BH3's signal on the same receptor and array with Bcl-xL, Q07817 was found to be 0.14; in the assay with Bfl-1, Q16548, 0.11; with Mcl-1, Q07820, 0.08.

B12: ZNF295 (peptide)
chain: ERLKGQLCDVDLIVGDQKFRAHKNVL
As for B12, the SPOT signal as a fraction of Bim BH3's signal on the same receptor and array with Bcl-xL, Q07817 was determined as 0.16; with Bfl-1, Q16548 it was 0.07; in the assay with Mcl-1, Q07820, 0.08.
